Measurements: publication PMC6686036, “Structural Basis for the Differential Regulatory Roles of the PDZ Domain in C-Terminal Processing Proteases” (mBio, 2019)
Where a chain is given by its changes, count along the chain named.

Assays:
Assay in all cases: crystal structure; purified Prc mutant and sNlpI mixed in a 1:2 molar ratio, complex isolated on Superdex 200 (25 mM Tris-HCl pH 8.0, 150 mM NaCl); hanging-drop vapor diffusion at 22°C (16°C for sNlpI–Prc-ΔPDZ)
[1] = target: T1, Prc-L245A/L340G (E. coli, UniProt P23865 23-682, L245A | L340G); details: both partners purified
T1 construct: also called Prc L245A/L340G double mutant; source: E. coli ΔPrc cells (strain MR812), purified (Ni-NTA, Mono Q, Superdex 200 with sNlpI)
T1 sequence (looked up): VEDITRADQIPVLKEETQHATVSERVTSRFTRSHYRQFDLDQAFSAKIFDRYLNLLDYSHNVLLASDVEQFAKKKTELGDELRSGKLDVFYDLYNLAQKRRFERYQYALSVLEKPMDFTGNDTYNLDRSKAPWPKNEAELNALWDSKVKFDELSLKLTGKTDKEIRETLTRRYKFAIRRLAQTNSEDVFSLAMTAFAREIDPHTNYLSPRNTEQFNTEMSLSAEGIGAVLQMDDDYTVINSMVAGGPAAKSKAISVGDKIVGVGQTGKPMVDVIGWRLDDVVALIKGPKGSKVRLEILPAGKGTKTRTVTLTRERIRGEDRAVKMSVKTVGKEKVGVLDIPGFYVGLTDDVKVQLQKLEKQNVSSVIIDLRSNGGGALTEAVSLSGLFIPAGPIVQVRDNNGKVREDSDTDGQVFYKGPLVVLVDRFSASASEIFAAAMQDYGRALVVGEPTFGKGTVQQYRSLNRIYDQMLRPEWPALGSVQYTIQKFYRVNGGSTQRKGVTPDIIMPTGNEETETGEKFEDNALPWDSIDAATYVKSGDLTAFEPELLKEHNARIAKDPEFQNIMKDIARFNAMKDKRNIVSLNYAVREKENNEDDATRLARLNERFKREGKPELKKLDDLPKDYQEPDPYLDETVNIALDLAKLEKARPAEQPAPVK

[2] = target: T2, Prc-S452I/L252Y (E. coli, UniProt P23865 23-682, S452I | L252Y); details: both partners purified
T2 construct: also called Prc S452I/L252Y double mutant; unliganded resting Prc; source: E. coli ΔPrc cells (strain MR812), purified (Ni-NTA, Mono Q, Superdex 200 with sNlpI)
T2 sequence (looked up): T1 sequence (looked up) with A223L, L230Y, G318L, S430I

[3] = target: T3, Prc-ΔPDZ (Prc with the deletion of residues 247 to 339) (E. coli, UniProt P23865 23-682, Δ247-339); details: both partners purified
T3 construct: Prc (Tsp), tail-specific C-terminal processing protease of E. coli, with the PDZ domain (residues 247 to 339) deleted; cloned into pTrc99A; also called Prc-PDZ; source: E. coli ΔPrc cells (strain MR812), purified (Ni-NTA, Mono Q, Superdex 200 with sNlpI)
T3 sequence (looked up): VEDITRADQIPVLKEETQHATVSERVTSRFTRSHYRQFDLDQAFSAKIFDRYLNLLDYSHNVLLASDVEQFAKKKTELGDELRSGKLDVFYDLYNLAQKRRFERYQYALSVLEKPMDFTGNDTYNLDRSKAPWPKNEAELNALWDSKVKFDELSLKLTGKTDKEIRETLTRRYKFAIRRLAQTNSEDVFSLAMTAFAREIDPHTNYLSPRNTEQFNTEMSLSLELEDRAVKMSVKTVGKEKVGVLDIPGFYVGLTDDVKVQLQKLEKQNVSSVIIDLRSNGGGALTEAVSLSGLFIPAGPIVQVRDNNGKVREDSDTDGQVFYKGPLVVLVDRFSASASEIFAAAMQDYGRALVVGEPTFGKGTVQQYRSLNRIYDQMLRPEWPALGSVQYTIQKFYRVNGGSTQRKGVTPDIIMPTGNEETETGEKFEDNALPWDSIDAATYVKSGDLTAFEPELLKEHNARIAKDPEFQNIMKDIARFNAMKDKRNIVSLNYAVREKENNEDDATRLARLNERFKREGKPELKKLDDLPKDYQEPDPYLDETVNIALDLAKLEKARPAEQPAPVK

[4] = target: the molecule itself

B1: soluble form of NlpI (sNlpI) (natural protein, E. coli, UniProt P0AFB1 19-294, looked up)
chain: CSNTSWRKSEVLAVPLQPTLQQEVILARMEQILASRALTDDERAQLLYERGVLYDSLGLRALARNDFSQALAIRPDMPEVFNYLGIYLTQAGNFDAAYEAFDSVLELDPTYNYAHLNRGIALYYGGRDKLAQDDLLAFYQDDPNDPFRSLWLYLAEQKLDEKQAKEVLKQHFEKSDKEQWGWNIVEFYLGNISEQTLMERLKADATDNTSLAEHLSETNFYLGKYYLSLGDLDSATALFKLAVANNVHNFVEHRYALLELSLLGQDQDDLAESDQQ
notes: NlpI of E. coli without its lipoprotein signal peptide (expressed without the lipid anchor); a TEV protease cleavage site follows the N-terminal His tag; source: E. coli BL21(λDE3), purified (Ni-NTA, Mono Q, Superdex 200 with Prc)
B1: binds [1]; binds [2]; binds [3]. The “stoichiometry N” value [4] was 2.
